Experimental data reported in PMC5135098, “Attenuation of Quorum Sensing Regulated Virulence of Pectobacterium carotovorum subsp. carotovorum through an AHL Lactonase Produced by Lysinibacillus sp. Gs50” (PLoS ONE, 2016).

Test system: CCCCCC(=O)NC1CCOC1=O
Test: purified protein
Details: pH 8.0, 50 mM Tris-Cl, 35°C (methods: 30°C, 2 h for saturation curve), no added metal

## AdeH (Lysinibacillus sp. Gs50)
  Km: 3.089 µM
